For assay [1], the target named is T1, hMC3-R (Homo sapiens, UniProt P41968).
T1 construct: expressed in transfected cells
The assay can be described thus: competitive inhibition binding assay, 125I-NDP-alpha-MSH, hMC3-R membranes. To be noted: 1 μM test peptide; 0.4 nM 125I-NDP-alpha-MSH; hMC3-R membranes. In outline: (§1)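 Membranes from hMC3-R, hMC4-R, hMC5-R or B-16 cells (MC1-R) incubated 90 min at room temperature with 0.4 nM 125I-NDP-alpha-MSH and rhenium-complexed test peptide, typically 1 μM, in HEPES pH 7.2 with Mg/Ca/K. Filter-bound radioactivity counted; % inhibition of specific binding (1 μM alpha-MSH defines nonspecific), triplicate means.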

For assay [2], the target named is T2, MC1-R (Mus musculus, UniProt Q01727).
T2 construct: membranes prepared from hMC3-R, hMC4-R, hMC5-R, and B-16 mouse melanoma cells (containing MC1-R); endogenous in cells; host or cells: B-16 mouse melanoma cells (membranes)
T2 sequence (Q01727 whole entry): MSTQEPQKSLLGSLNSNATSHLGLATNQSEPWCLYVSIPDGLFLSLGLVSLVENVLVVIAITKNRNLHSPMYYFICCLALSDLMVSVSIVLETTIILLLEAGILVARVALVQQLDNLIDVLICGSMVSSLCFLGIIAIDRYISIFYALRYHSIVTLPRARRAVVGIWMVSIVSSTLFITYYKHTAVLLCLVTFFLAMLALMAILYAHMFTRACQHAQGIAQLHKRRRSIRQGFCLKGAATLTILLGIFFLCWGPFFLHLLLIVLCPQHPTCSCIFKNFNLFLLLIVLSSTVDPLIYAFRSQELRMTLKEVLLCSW
Nature of the assay: competitive inhibition binding assay, 125I-NDP-alpha-MSH, B-16 mouse melanoma cell membranes. To be noted: 1 μM test peptide; 0.4 nM 125I-NDP-alpha-MSH; B-16 mouse melanoma cell membranes. The essentials: as §1

Assay [3] has as its target T3, hMC5-R (Homo sapiens, UniProt P33032).
T3 construct: expressed in transfected cells
The assay can be described thus: competitive inhibition binding assay, 125I-NDP-alpha-MSH, hMC5-R membranes. To be noted: 1 μM test peptide; 0.4 nM 125I-NDP-alpha-MSH; hMC5-R membranes. The essentials: as §1

Assay [4] deals with T4, hMC4-R (Homo sapiens, UniProt P32245).
T4 construct: expressed in transfected cells
T4 sequence (P32245 whole entry): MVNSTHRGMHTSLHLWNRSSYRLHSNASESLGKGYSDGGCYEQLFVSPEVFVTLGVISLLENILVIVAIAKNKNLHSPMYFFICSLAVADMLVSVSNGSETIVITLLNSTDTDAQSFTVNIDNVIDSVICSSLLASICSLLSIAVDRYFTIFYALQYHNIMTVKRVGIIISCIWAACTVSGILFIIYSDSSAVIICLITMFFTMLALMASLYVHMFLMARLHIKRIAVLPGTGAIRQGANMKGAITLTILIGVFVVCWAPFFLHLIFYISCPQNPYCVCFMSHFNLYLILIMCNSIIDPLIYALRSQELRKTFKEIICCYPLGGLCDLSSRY
Nature of the assay: competitive inhibition binding assay, 125I-NDP-alpha-MSH, hMC4-R membranes. To be noted: 1 μM test peptide; 0.4 nM 125I-NDP-alpha-MSH; hMC4-R membranes. The essentials: as §1

As usually defined, the % Inhibition is the percentage by which the read-out fell short of the control.

Square brackets hold non-standard residues; d marks the D form. Ends that are not written are not given here. Nle = CCCC[C@H](N)C(=O)O

T1 sequence (P41968 whole entry): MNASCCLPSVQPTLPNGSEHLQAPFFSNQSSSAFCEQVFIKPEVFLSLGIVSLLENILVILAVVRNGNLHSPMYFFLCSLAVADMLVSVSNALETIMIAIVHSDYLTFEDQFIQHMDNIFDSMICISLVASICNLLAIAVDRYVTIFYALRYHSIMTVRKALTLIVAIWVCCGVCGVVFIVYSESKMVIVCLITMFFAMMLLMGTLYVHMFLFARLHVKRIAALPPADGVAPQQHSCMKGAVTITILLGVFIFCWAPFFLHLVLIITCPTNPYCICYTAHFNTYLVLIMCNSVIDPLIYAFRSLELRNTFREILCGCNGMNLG
T3 sequence (P33032 whole entry): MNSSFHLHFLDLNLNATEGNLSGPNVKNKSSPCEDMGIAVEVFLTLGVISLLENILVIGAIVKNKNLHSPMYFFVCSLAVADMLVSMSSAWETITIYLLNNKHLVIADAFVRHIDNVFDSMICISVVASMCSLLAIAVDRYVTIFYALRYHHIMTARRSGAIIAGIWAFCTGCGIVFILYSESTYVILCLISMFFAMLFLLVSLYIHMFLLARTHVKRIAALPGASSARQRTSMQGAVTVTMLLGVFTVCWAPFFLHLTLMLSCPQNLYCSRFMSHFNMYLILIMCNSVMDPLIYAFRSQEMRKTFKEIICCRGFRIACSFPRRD

As to “Tyr-Val-Nle-Gly-His-D-Phe-Cys-Arg-Trp-Asp-Arg-Phe-NH2 (YV[Nle]GH[dF]CRWDRF-NH2; also: Re complex) [3-6]”, the “% Inhibition at 1 μM at Melanocortin Receptor 3” value in assay [1] is given as 20%. The “% Inhibition at 1 μM at Melanocortin Receptor 1” value in assay [2] is reported as 52%. In addition, the “% Inhibition at 1 μM at Melanocortin Receptor 5” value in assay [3] was 31%. Moreover, in assay [4], the “% Inhibition at 1 μM at Melanocortin Receptor 4” value worked out at 31%.

As to “Tyr-Val-Nle-Gly-His-Cys-D-Phe-Arg-Trp-Asp-Arg-Phe-NH2 [3-8] (YV[Nle]GHC[dF]RWDRF-NH2; numbers in words are those of the source; also: oxorhenium(V) N3S1 chelate complex (Re=O))”, the “% Inhibition at 1 μM at Melanocortin Receptor 3” value in assay [1] turned out to be 60%. For the same substance, in assay [2], the “% Inhibition at 1 μM at Melanocortin Receptor 1” value amounted to 86%. The “% Inhibition at 1 μM at Melanocortin Receptor 5” value in assay [3] is 84%. The “% Inhibition at 1 μM at Melanocortin Receptor 4” value in assay [4] stood at 55%.

Take “Ac-Ser-Tyr-Ser-Nle-Cys-Glu-His-Phe-Arg-Trp-Gly-Lys-Pro-Val-NH2 (Ac-SYS[Nle]CEHFRWGKPV-NH2; not fully specified (bridges); printed as Ac-Ser-Tyr-Ser-Nle-Cys-Glu-His-Phe-Arg-Trp-Gly-Lys-Pro-Val-NH2; numbers in words are those of the source; also: oxorhenium(V) N3S1 chelate (Re(V)=O)) [1-10]”: the “% Inhibition at 1 μM at Melanocortin Receptor 3” value in assay [1] worked out at 0%. For the same substance, the “% Inhibition at 1 μM at Melanocortin Receptor 1” value in assay [2] worked out at 72%. Besides, the “% Inhibition at 1 μM at Melanocortin Receptor 5” value in assay [3] is 5%. Besides, in assay [4], the “% Inhibition at 1 μM at Melanocortin Receptor 4” value was 7%.

As for “Tyr-Val-Nle-Gly-Cys-D-Phe-Arg-Trp-Asp-Arg-Phe-NH2 (YV[Nle]GC[dF]RWDRF-NH2; not fully specified (bridges); printed as Tyr-Val-Nle-Gly-Cys-D-Phe-Arg-Trp-Asp-Arg-Phe-NH2; numbers in words are those of the source; also: oxorhenium(V) N3S1 chelate complex (Re=O)) [5-7]”, the “% Inhibition at 1 μM at Melanocortin Receptor 3” value in assay [1] was 70%. In addition, the “% Inhibition at 1 μM at Melanocortin Receptor 1” value in assay [2] is on record as 89%. For the same substance, the “% Inhibition at 1 μM at Melanocortin Receptor 5” value in assay [3] is on record as 88%. Also, the “% Inhibition at 1 μM at Melanocortin Receptor 4” value in assay [4] is reported as 69%.

“Ac-Ser-Tyr-Ser-Nle-Glu-His-Phe-Arg-Trp-Gly-Lys-Gly-D-Cys-Val-NH2 (Ac-SYS[Nle]EHFRWGKG[dC]V-NH2; not fully specified (bridges); printed as Ac-Ser-Tyr-Ser-Nle-Glu-His-Phe-Arg-Trp-Gly-Lys-Gly-D-Cys-Val-NH2; numbers in words are those of the source; also: oxorhenium(V) N3S1 chelate (Re(V)=O)) [2-2]”: the “% Inhibition at 1 μM at Melanocortin Receptor 3” value in assay [1] is recorded as 26%. In addition, in assay [2], the “% Inhibition at 1 μM at Melanocortin Receptor 1” value was determined as 93%. Also, the “% Inhibition at 1 μM at Melanocortin Receptor 5” value in assay [3] is 32%. The “% Inhibition at 1 μM at Melanocortin Receptor 4” value in assay [4] is 28%.

Source of the values: US7351690B2, “Knockout identification of target-specific sites in peptides” (priority 2000, dated 2008).
